pAKT EC50 (concentration needed to achieve the half maximal level of pAKT signaling), healthy iPSC-derived cardiomyocytes, pAKT ELISA data for one substance are collected here from patent publication US20220009991A1.

For this experiment, the target named is IGF-1 receptor (UniProt P08069). As to the kind of experiment: cell-based or functional assay.
UniProt P08069, sequence (P08069 31-1367): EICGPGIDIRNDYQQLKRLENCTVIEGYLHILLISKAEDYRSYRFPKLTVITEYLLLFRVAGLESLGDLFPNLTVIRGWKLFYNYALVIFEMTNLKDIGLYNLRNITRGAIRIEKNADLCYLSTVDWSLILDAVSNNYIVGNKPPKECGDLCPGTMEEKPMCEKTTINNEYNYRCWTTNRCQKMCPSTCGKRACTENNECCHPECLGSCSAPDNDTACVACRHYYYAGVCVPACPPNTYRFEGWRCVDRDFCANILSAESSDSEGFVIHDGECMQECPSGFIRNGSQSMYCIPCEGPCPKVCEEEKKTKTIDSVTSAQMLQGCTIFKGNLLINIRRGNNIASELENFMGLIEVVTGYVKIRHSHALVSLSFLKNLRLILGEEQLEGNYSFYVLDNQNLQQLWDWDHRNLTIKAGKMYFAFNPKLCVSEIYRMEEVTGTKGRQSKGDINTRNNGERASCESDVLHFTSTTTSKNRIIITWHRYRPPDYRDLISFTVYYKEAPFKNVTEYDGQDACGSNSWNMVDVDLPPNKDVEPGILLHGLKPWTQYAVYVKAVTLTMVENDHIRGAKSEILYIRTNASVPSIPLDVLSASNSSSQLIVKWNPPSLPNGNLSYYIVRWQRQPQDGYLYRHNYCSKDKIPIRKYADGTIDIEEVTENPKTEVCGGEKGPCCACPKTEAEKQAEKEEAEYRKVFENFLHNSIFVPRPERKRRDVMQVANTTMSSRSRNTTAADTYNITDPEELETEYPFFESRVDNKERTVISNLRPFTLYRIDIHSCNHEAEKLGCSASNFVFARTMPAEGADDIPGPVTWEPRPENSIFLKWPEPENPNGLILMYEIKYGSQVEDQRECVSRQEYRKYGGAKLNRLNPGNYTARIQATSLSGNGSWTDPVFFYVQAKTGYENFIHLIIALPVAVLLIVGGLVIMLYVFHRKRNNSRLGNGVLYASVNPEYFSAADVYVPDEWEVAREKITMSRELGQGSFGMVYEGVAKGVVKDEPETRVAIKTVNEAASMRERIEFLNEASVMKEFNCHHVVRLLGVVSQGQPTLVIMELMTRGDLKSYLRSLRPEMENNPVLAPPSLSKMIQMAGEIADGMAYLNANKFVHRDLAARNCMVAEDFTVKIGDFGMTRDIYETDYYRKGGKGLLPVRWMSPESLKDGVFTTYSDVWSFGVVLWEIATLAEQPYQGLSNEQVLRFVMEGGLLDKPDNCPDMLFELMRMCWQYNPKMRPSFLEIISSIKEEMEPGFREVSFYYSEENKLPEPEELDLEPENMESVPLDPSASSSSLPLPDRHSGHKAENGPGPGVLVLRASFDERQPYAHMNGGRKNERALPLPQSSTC

In the case of IGF-1 (LR3) (ligand), the pAKT EC50 (concentration needed to achieve the half maximal level of pAKT signaling), healthy iPSC-derived cardiomyocytes, pAKT ELISA was 0.73.
